Data from FireProtDB (doi:10.1002/pro.5560041213).

B1: High-potential iron-sulfur protein isozyme 1, P04168 (parent)
chain: EPRAEDGHAHDYVNEAADASGHPRYQEGQLCENCAFWGEAVQDGWGRCTHPDFDEVLVKAEGWCSVYAPAS

Variants of: B1
Conditions: Halorhodospira halophila, Thermal, DSC, reversible: yes, structure 2HIP, whole UniProt chain shown

Variant: Y12W
- Tm (pH 7, MOPS 20 mM): 37.4 °C

Variant: Y12H
- Tm (pH 7, MOPS 20 mM): 42.2 °C
- Tm (pH 9, TAPS 20 mM): 39 °C

Variant: Y12F
- Tm (pH 9, TAPS 20 mM): 54.4 °C
- Tm (pH 10, CAPS 20 mM): 54.2 °C
- Tm (pH 10.8, CHES 20 mM): 37.1 °C
